From the supplement of paper PMC10567573

B1: VENTX (parent)
chain: VFQHHQYLSPLERKRLAREMQLSE
B2: SPSB4 (parent)
chain: LDMDEGTLSFIVDGQYLGVAFRGL

Variants of: B1
Assay: protein stability index of a GFP-peptide fusion (GPS, HEK-293T) (PSI 1-6); higher = more stable
Conditions: c terminus: a fixed tail appended
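Note: lentivirally expressed fusions sorted by FACS into six bins by GFP to DsRed ratio, PSI derived from sequencing read proportions per bin multiplied by bin number.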

**Q.** Which protein stability index does the source give for VFQHHQYLSPLERKRLAREMTLSE [Q21T] here?
**A.** 2.49

**Q.** With VFQHHQYLSPLERKRLAREMVLSE [Q21V] as the variant, how does the protein stability index read?
**A.** 2.44

**Q.** With VFQHHQYLSPLERKRLAREMWLSE [Q21W] as the variant, how does the protein stability index read?
**A.** 2.43

**Q.** With VFQHHQYLSPLERKRLAREMYLSE [Q21Y] as the variant, how does the protein stability index read?
**A.** 3.06

**Q.** For VFQHHQYLSPLERKRLAREMQASE [L22A], which protein stability index is on record?
**A.** 2.72

**Q.** For VFQHHQYLSPLERKRLAREMQCSE [L22C], which protein stability index is on record?
**A.** 2.84

**Q.** For VFQHHQYLSPLERKRLAREMQDSE [L22D], which protein stability index is on record?
**A.** 3.29

**Q.** Which protein stability index does the source give for VFQHHQYLSPLERKRLAREMQESE [L22E] here?
**A.** 2.85

**Q.** Which protein stability index does the source give for VFQHHQYLSPLERKRLAREMQFSE [L22F] here?
**A.** 1.83

**Q.** For VFQHHQYLSPLERKRLAREMQGSE [L22G], which protein stability index is on record?
**A.** 1.89

**Q.** Which protein stability index does the source give for VFQHHQYLSPLERKRLAREMQHSE [L22H] here?
**A.** 2.93

**Q.** For VFQHHQYLSPLERKRLAREMQISE [L22I], which protein stability index is on record?
**A.** 1.93

**Q.** For VFQHHQYLSPLERKRLAREMQKSE [L22K], which protein stability index is on record?
**A.** 3.62

**Q.** For VFQHHQYLSPLERKRLAREMQMSE [L22M], which protein stability index is on record?
**A.** 2.42

**Q.** With VFQHHQYLSPLERKRLAREMQNSE [L22N] as the variant, how does the protein stability index read?
**A.** 3.04

**Q.** For VFQHHQYLSPLERKRLAREMQPSE [L22P], which protein stability index is on record?
**A.** 2.68

**Q.** For VFQHHQYLSPLERKRLAREMQQSE [L22Q], which protein stability index is on record?
**A.** 2.38

**Q.** Which protein stability index does the source give for VFQHHQYLSPLERKRLAREMQRSE [L22R] here?
**A.** 2.44

**Q.** Which protein stability index does the source give for VFQHHQYLSPLERKRLAREMQSSE [L22S] here?
**A.** 2.56

**Q.** Which protein stability index does the source give for VFQHHQYLSPLERKRLAREMQTSE [L22T] here?
**A.** 3.12

**Q.** Which protein stability index does the source give for VFQHHQYLSPLERKRLAREMQVSE [L22V] here?
**A.** 2.27

**Q.** With VFQHHQYLSPLERKRLAREMQWSE [L22W] as the variant, how does the protein stability index read?
**A.** 1.96

**Q.** For VFQHHQYLSPLERKRLAREMQYSE [L22Y], which protein stability index is on record?
**A.** 2.17

**Q.** With VFQHHQYLSPLERKRLAREMQLAE [S23A] as the variant, how does the protein stability index read?
**A.** 3.5

**Q.** Which protein stability index does the source give for VFQHHQYLSPLERKRLAREMQLCE [S23C] here?
**A.** 2.41

**Q.** Which protein stability index does the source give for VFQHHQYLSPLERKRLAREMQLDE [S23D] here?
**A.** 2.66

**Q.** For VFQHHQYLSPLERKRLAREMQLEE [S23E], which protein stability index is on record?
**A.** 3.23

**Q.** For VFQHHQYLSPLERKRLAREMQLFE [S23F], which protein stability index is on record?
**A.** 2.98

**Q.** For VFQHHQYLSPLERKRLAREMQLGE [S23G], which protein stability index is on record?
**A.** 2.5

**Q.** For VFQHHQYLSPLERKRLAREMQLHE [S23H], which protein stability index is on record?
**A.** 2.37

**Q.** For VFQHHQYLSPLERKRLAREMQLIE [S23I], which protein stability index is on record?
**A.** 1.97

**Q.** With VFQHHQYLSPLERKRLAREMQLKE [S23K] as the variant, how does the protein stability index read?
**A.** 2.22

**Q.** With VFQHHQYLSPLERKRLAREMQLLE [S23L] as the variant, how does the protein stability index read?
**A.** 2.84

**Q.** Which protein stability index does the source give for VFQHHQYLSPLERKRLAREMQLME [S23M] here?
**A.** 2.4

**Q.** Which protein stability index does the source give for VFQHHQYLSPLERKRLAREMQLNE [S23N] here?
**A.** 2.25

**Q.** For VFQHHQYLSPLERKRLAREMQLPE [S23P], which protein stability index is on record?
**A.** 2.78

**Q.** With VFQHHQYLSPLERKRLAREMQLQE [S23Q] as the variant, how does the protein stability index read?
**A.** 3.04

**Q.** Which protein stability index does the source give for VFQHHQYLSPLERKRLAREMQLRE [S23R] here?
**A.** 2.33

**Q.** Which protein stability index does the source give for VFQHHQYLSPLERKRLAREMQLTE [S23T] here?
**A.** 2.44

**Q.** With VFQHHQYLSPLERKRLAREMQLVE [S23V] as the variant, how does the protein stability index read?
**A.** 2.18

**Q.** Which protein stability index does the source give for VFQHHQYLSPLERKRLAREMQLWE [S23W] here?
**A.** 2.04

**Q.** Which protein stability index does the source give for VFQHHQYLSPLERKRLAREMQLYE [S23Y] here?
**A.** 2.42

**Q.** For VFQHHQYLSPLERKRLAREMQLSA [E24A], which protein stability index is on record?
**A.** 2.14

**Q.** With VFQHHQYLSPLERKRLAREMQLSC [E24C] as the variant, how does the protein stability index read?
**A.** 1.82

**Q.** For VFQHHQYLSPLERKRLAREMQLSD [E24D], which protein stability index is on record?
**A.** 2.48

**Q.** Which protein stability index does the source give for VFQHHQYLSPLERKRLAREMQLSF [E24F] here?
**A.** 1.93

**Q.** For VFQHHQYLSPLERKRLAREMQLSG [E24G], which protein stability index is on record?
**A.** 2.3

**Q.** For VFQHHQYLSPLERKRLAREMQLSH [E24H], which protein stability index is on record?
**A.** 2.47

**Q.** Which protein stability index does the source give for VFQHHQYLSPLERKRLAREMQLSI [E24I] here?
**A.** 2.23

**Q.** For VFQHHQYLSPLERKRLAREMQLSK [E24K], which protein stability index is on record?
**A.** 2.29

**Q.** With VFQHHQYLSPLERKRLAREMQLSL [E24L] as the variant, how does the protein stability index read?
**A.** 2.07

**Q.** With VFQHHQYLSPLERKRLAREMQLSM [E24M] as the variant, how does the protein stability index read?
**A.** 2.39

**Q.** Which protein stability index does the source give for VFQHHQYLSPLERKRLAREMQLSN [E24N] here?
**A.** 2.37

**Q.** With VFQHHQYLSPLERKRLAREMQLSP [E24P] as the variant, how does the protein stability index read?
**A.** 2.1

**Q.** For VFQHHQYLSPLERKRLAREMQLSQ [E24Q], which protein stability index is on record?
**A.** 2.5

**Q.** Which protein stability index does the source give for VFQHHQYLSPLERKRLAREMQLSR [E24R] here?
**A.** 1.95

**Q.** With VFQHHQYLSPLERKRLAREMQLSS [E24S] as the variant, how does the protein stability index read?
**A.** 2.65

**Q.** For VFQHHQYLSPLERKRLAREMQLST [E24T], which protein stability index is on record?
**A.** 2.27

**Q.** With VFQHHQYLSPLERKRLAREMQLSV [E24V] as the variant, how does the protein stability index read?
**A.** 1.39

**Q.** For VFQHHQYLSPLERKRLAREMQLSW [E24W], which protein stability index is on record?
**A.** 2.76

**Q.** For VFQHHQYLSPLERKRLAREMQLSY [E24Y], which protein stability index is on record?
**A.** 2.07

Variants of: B2
Assay: as above
Conditions: c terminus: a fixed tail appended

**Q.** With ADMDEGTLSFIVDGQYLGVAFRGL [L1A] as the variant, how does the protein stability index read?
**A.** 1.83

**Q.** For CDMDEGTLSFIVDGQYLGVAFRGL [L1C], which protein stability index is on record?
**A.** 3.04

**Q.** Which protein stability index does the source give for DDMDEGTLSFIVDGQYLGVAFRGL [L1D] here?
**A.** 1.31

**Q.** For EDMDEGTLSFIVDGQYLGVAFRGL [L1E], which protein stability index is on record?
**A.** 1.66

**Q.** Which protein stability index does the source give for FDMDEGTLSFIVDGQYLGVAFRGL [L1F] here?
**A.** 2.48

**Q.** For GDMDEGTLSFIVDGQYLGVAFRGL [L1G], which protein stability index is on record?
**A.** 1.65

**Q.** For HDMDEGTLSFIVDGQYLGVAFRGL [L1H], which protein stability index is on record?
**A.** 2.12

**Q.** With IDMDEGTLSFIVDGQYLGVAFRGL [L1I] as the variant, how does the protein stability index read?
**A.** 2.59

**Q.** With KDMDEGTLSFIVDGQYLGVAFRGL [L1K] as the variant, how does the protein stability index read?
**A.** 1.27

**Q.** With MDMDEGTLSFIVDGQYLGVAFRGL [L1M] as the variant, how does the protein stability index read?
**A.** 2.75

**Q.** For NDMDEGTLSFIVDGQYLGVAFRGL [L1N], which protein stability index is on record?
**A.** 1.28

**Q.** Which protein stability index does the source give for PDMDEGTLSFIVDGQYLGVAFRGL [L1P] here?
**A.** 1.96

**Q.** With QDMDEGTLSFIVDGQYLGVAFRGL [L1Q] as the variant, how does the protein stability index read?
**A.** 1.53

**Q.** With RDMDEGTLSFIVDGQYLGVAFRGL [L1R] as the variant, how does the protein stability index read?
**A.** 2.09

**Q.** With SDMDEGTLSFIVDGQYLGVAFRGL [L1S] as the variant, how does the protein stability index read?
**A.** 1.71

**Q.** For TDMDEGTLSFIVDGQYLGVAFRGL [L1T], which protein stability index is on record?
**A.** 1.86

**Q.** For VDMDEGTLSFIVDGQYLGVAFRGL [L1V], which protein stability index is on record?
**A.** 2.51

**Q.** Which protein stability index does the source give for WDMDEGTLSFIVDGQYLGVAFRGL [L1W] here?
**A.** 2.76

**Q.** Which protein stability index does the source give for YDMDEGTLSFIVDGQYLGVAFRGL [L1Y] here?
**A.** 1.32

**Q.** For LAMDEGTLSFIVDGQYLGVAFRGL [D2A], which protein stability index is on record?
**A.** 2.04

**Q.** Which protein stability index does the source give for LEMDEGTLSFIVDGQYLGVAFRGL [D2E] here?
**A.** 2.68

**Q.** For LHMDEGTLSFIVDGQYLGVAFRGL [D2H], which protein stability index is on record?
**A.** 2.12

**Q.** Which protein stability index does the source give for LIMDEGTLSFIVDGQYLGVAFRGL [D2I] here?
**A.** 2.56

**Q.** Which protein stability index does the source give for LKMDEGTLSFIVDGQYLGVAFRGL [D2K] here?
**A.** 1.64

**Q.** With LLMDEGTLSFIVDGQYLGVAFRGL [D2L] as the variant, how does the protein stability index read?
**A.** 2.87

**Q.** With LMMDEGTLSFIVDGQYLGVAFRGL [D2M] as the variant, how does the protein stability index read?
**A.** 2.62

**Q.** Which protein stability index does the source give for LPMDEGTLSFIVDGQYLGVAFRGL [D2P] here?
**A.** 2.26

**Q.** With LQMDEGTLSFIVDGQYLGVAFRGL [D2Q] as the variant, how does the protein stability index read?
**A.** 1.65

**Q.** For LRMDEGTLSFIVDGQYLGVAFRGL [D2R], which protein stability index is on record?
**A.** 2.74

**Q.** Which protein stability index does the source give for LSMDEGTLSFIVDGQYLGVAFRGL [D2S] here?
**A.** 2.1

**Q.** For LTMDEGTLSFIVDGQYLGVAFRGL [D2T], which protein stability index is on record?
**A.** 3.9

**Q.** For LVMDEGTLSFIVDGQYLGVAFRGL [D2V], which protein stability index is on record?
**A.** 2.35

**Q.** For LWMDEGTLSFIVDGQYLGVAFRGL [D2W], which protein stability index is on record?
**A.** 2.23
